This is an account of results in patent US20060292657A1, “Phex substrates and methods using same” (priority 2003, published 2006).

Assay in all cases: Kinetic parameters for hydrolysis of internally quenched fluorogenic peptides by secPHEX
What all share (format): biochemical, human
Holding throughout (conditions): other: 37° C., 10 mM Bis-Tris buffer pH 5.5, 150 mM NaCl

Substrate in series [1]: CSCC[C@H](NC(=O)[C@H](CC(C)C)NC(=O)c1ccccc1N)C(=O)N[C@@H](CCSC)C(=O)N[C@@H](CC(=O)O)C(=O)N[C@@H](Cc1ccccc1)C(=O)N[C@@H](CCCNC(=N)N)C(=O)NCC(=O)N[C@@H](CCC(N)=O)C(=O)NCCNc1ccc([N+](=O)[O-])cc1[N+](=O)[O-]
As to the method: (§1) The human recombinant secPHEX was obtained following the procedure previously described (17, WO 00/50580). Purified secPHEX concentration was determined using the Bradford method (DC protein assay kit; Bio-Rad, Mississauga, ON, Canada). Membrane-bound recombinant human PHEX was expressed in LLC-PK1 cells (17, (WO 00/50580)) and membranes were prepared essentially as described by Guo et al. (34). Briefly, transfected cells resuspended in lysis buffer (150 mM NaCl, 20 mM Tris.HCl, pH 7.6) were disrupted by sonication. Cell debris were removed by centrifugation at 300 g for 15 min at 4 °C. Membranes were collected by centrifugation at 30,000 g for 50 min and solubilized for 2h with 1% n-dodecyl-β-D-maltoside in lysis buffer. Insoluble material was pelleted by centrifugation at 10,000 g for 15 min and protein concentrations of the supernatant determined using the Bradford method described above. PHEX amounts were evaluated by immunoblotting as described previously (17). NEP expression and purification were performed as described previously (36).
(§2) The hydrolysis of the IQFPs, at 37° C., in 10 mM Bit-Tris buffer pH 5.5 (0.35 to 1.0 ml final volume) containing 150 mM NaCl, was continuously followed measuring the fluorescence at γem=420 nm and γex=320 nm in a Hitachi F-2000™ spectrofluorometer. The cuvefte containing the buffer and the substrate was placed in a thermostatically controlled cell compartment for 5 min before the addition of the enzyme and the increase in fluorescence with time was continuously recorded for 5-10 min. The enzyme concentration for initial rate determination was chosen at a level intended to hydrolyze less than 5% of the substrate present. The slope was converted into micromoles of substrate hydrolyzed per min based on a calibration curve obtained from complete hydrolysis of each peptide. The inner-filter effect was corrected using an empirical equation as previously described (43). The kinetic parameters Km and kcat were calculated by the non-linear regression data analysis Grafit program (42). The kcat/Km values were calculated as the ratio of these two determined parameters. The apparent second order rate constant kcat/Km (*kIt/Km) was determined under pseudo first-order conditions, where [S]<<Km. These determinations were performed in two different substrate concentrations and the errors were less than 5% for any obtained value.
(§3) To determine the position of cleavage in peptides of the IQFPs combinatorial libraries, the products resulting from hydrolysis by secPHEX were submitted to N-terminal amino acid sequencing in a PPSQ-23protein sequencer (Shimadzu Tokyo, Japan). The scissile bonds in the IQFPs secPHEX substrates derived from PTHrP107-139, FGF-23and MEPE were determined by amino acid sequencing and by MALDI-TOF™ mass spectrometry (TofSpec-E™, Micromass, Manchester, U.K.) after isolation of the fragments resulting from the hydrolysis by secPHEX by analytical HPLC.
(§4) The assays were performed at 37° C., in 10 mM Bis-Tris buffer pH 5.5, containing 150 mM NaCl. Measurements were made as described under the heading “Experimental Procedures” above. Cleavage sites are indicated as arrows (↓). The standard deviations of the kinetic constants were less than 5%.
(§5) The assays were performed at 37° C., in 10 mM Bis-Tris buffer pH 5.5, containing 150 mM NaCl. Measurements were made as described under the heading “Experimental Procedures” above. Cleavage sites are indicated by arrows (↓). The standard deviations of the kinetic constants were less than 5%.
(§6) The assays were. performed at 37° C., in 10 mM Bis-Tris buffer pH 5.5, containing 150 mM NaCl. Measurements were made as described under the heading “Experimental Procedures” above. Cleavage sites are indicated by arrows (↓). The standard deviations of the kinetic constants were less than 5%.
(§7) The assays were performed at 37° C., in 10 mM Bis-Tris buffer pH 5.5, containing 150 mM NaCl. Measurements were made as described under “Experimental Procedures”. […]

Substrate in series [2]: CSCC[C@H](NC(=O)[C@H](CCC(=O)O)NC(=O)[C@H](CC(N)=O)NC(=O)c1ccccc1N)C(=O)N[C@@H](CC(=O)O)C(=O)N[C@@H](CO)C(=O)N[C@@H](Cc1ccccc1)C(=O)N[C@@H](CC(N)=O)C(=O)N[C@@H](CCC(N)=O)C(=O)NCCNc1ccc([N+](=O)[O-])cc1[N+](=O)[O-]
The procedure:
as §1, §2, §3, §4, §5, §6, §7

Substrate in series [3]: NC(=O)CC[C@H](NC(=O)[C@H](CO)NC(=O)CNC(=O)[C@H](CO)NC(=O)[C@H](CC(=O)O)NC(=O)[C@H](CO)NC(=O)[C@H](CO)NC(=O)c1ccccc1N)C(=O)NCCNc1ccc([N+](=O)[O-])cc1[N+](=O)[O-]
The procedure: as §1, §2, §3, §4, §5, §6, §7

Substrate in series [4]: C[C@H](NC(=O)[C@H](CO)NC(=O)[C@H](CCCNC(=N)N)NC(=O)[C@@H](NC(=O)[C@H](Cc1c[nH]cn1)NC(=O)[C@H](CCCNC(=N)N)NC(=O)[C@H](CCCNC(=N)N)NC(=O)c1ccccc1N)[C@@H](C)O)C(=O)N[C@@H](CCC(=O)O)C(=O)N[C@@H](CC(=O)O)C(=O)N[C@@H](CC(=O)O)C(=O)N[C@@H](CO)C(=O)N[C@@H](CCC(=O)O)C(=O)N[C@@H](CCCNC(=N)N)C(=O)N[C@@H](CCC(N)=O)C(=O)NCCNc1ccc([N+](=O)[O-])cc1[N+](=O)[O-]
As to the method: as §1, §2, §3, §4, §5, §6, §7

B1: human recombinant secPHEX (Homo sapiens) (protein)
chain: SLQAKQEYCLKPECIEAAAAILSKVNLSVDPCDNFFRFACDGWISNNPIPEDMPSYGVYPWLRHNVDLKLKELLEKSISRRRDTEAIQKAKILYSSCMNEKAIEKADAKPLLHILRHSPFRWPVLESNIGPEGVWSERKFSLLQTLATFRGQYSNSVFIRLYVSPDDKASNEHILKLDQATLSLAVREDYLDNSTEAKSYRDALYKFMVDTAVLLGANSSRAEHDMKSVLRLEIKIAEIMIPHENRTSEAMYNKMNISELSAMIPQFDWLGYIKKVIDTRLYPHLKDISPSENVVVRVPQYFKDLFRILGSERKKTIANYLVWRMVYSRIPNLSRRFQYRWLEFSRVIQGTTTLLPQWDKCVNFIESALPYVVGKMFVDVYFQEDKKEMMEELVEGVRWAFIDMLEKENEWMDAGTKRKAKEKARAVLAKVGYPEFIMNDTHVNEDLKAIKFSEADYFGNVLQTRKYLAQSDFFWLRKAVPKTEWFTNPTTVNAFYSASTNQIRFPAGELQKPFFWGTEYPRSLSYGAIGVIVGHEFTHGFDNNGRKYDKNGNLDPWWSTESEEKFKEKTKCMINQYSNYYWKKAGLNVKGKRTLGENIADNGGLREAFRAYRKWINDRRQGLEEPLLPGITFTNNQLFFLSYAHVRCNSYRPEAAREQVQIGAHSPPQFRVNGAISNFEEFQKAFNCPPNSTMNRGMDSCRLW
notes: pure soluble form of PHEX (secPHEX); made in house
For the protein B1, the Km in series [1] came out at 17.0 µM; in series [2], 38.0 µM; in series [3], 31.6 µM; in series [4] it was 3.0 µM. In addition, the kcat was 0.8 s⁻¹ in series [1], 0.3 s⁻¹ in series [2], 0.2 s⁻¹ in series [3] and 0.2 s⁻¹ in series [4]. Further, the kcat/Km in series [1] was 45000 M⁻¹ s⁻¹; in series [2], 7900 M⁻¹ s⁻¹; in series [3], 7100 M⁻¹ s⁻¹; in series [4], 66700 M⁻¹ s⁻¹.

The Km is the concentration of substrate that gives half-maximal velocity. As a reminder, the kcat is the maximal rate divided by the concentration of active sites. As usually defined, the kcat/Km is the second-order rate constant that governs catalysis at low substrate concentration.
